{"source": "patent US20250312464A1", "about": "(CILOA, published 2025)", "binders": {"B1": {"name": "SBP-eGFP polypeptide (other)", "chain": "not shown"}}, "target": "T1, Src-streptavidin-PP polypeptide", "T1 construct": "also called Src-strepta-PP; Src-Strepta-PP", "test": "co-expression in HEK293T cells; EV loading, Western blot"}
{"binder": "B1", "values": [{"measurement": "binding result", "result": "binds"}]}
